In US20160304604A1 (H LUNDBECK A S, published 2016):
Changes are numbered by the printed parent chain.

T1: human PACAP27 (human, C-terminal leucine is amidated)
T1 peptide: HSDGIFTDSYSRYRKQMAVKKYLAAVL

T2: human PACAP38 (human, not fully specified; C-terminal lysine is amidated)
T2 peptide: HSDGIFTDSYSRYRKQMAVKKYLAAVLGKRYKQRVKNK

T3: PAC1-R on PC-12 cells (UniProt P32215 20-523)
T3 construct: whole, on cells; Endogenous receptor of PC-12 cells; also called PAC1 receptor; PAC1-R-expressing PC-12 cells
T3 sequence (looked up): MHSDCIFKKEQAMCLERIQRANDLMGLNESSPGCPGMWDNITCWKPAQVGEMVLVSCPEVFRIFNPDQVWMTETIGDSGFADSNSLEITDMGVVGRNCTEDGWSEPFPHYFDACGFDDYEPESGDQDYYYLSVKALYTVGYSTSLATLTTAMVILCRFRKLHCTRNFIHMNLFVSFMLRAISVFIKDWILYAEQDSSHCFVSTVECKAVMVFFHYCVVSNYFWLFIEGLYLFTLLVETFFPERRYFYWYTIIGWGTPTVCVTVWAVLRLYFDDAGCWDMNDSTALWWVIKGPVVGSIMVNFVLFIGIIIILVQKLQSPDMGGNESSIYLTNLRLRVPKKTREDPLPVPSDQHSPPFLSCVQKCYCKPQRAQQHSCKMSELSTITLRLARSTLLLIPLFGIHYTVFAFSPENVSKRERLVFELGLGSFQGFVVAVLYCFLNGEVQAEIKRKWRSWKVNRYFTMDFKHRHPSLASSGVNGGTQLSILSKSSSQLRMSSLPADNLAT

B1: Ab10 (antibody, human IgG1, kappa, N297A, V domains shown)
VH: QSVEESGGRLVTPGTPLTLTCTVSGIDLNSYYMTWVRQAPGKGLEWIGFIDAGGDAYYASWAKGRFTISKTSTTVDLKITSPTTEDTATYFCARDLDLWGQGTLVTVSS
VL: AAVLTQTPSPVSAAVGGTVTINCQSSESVYGNYLAWFQQKPGQPPKLLIYEASKLESGVPSRFSGSGSGTQFTLTISDLQCDDAATYYCAGGDISEGVAFGGGTEVVVKR
notes: also called anti-PACAP antibody Ab10
B2: Ab20 (antibody, human IgG1, kappa, N297A, V domains shown)
VH: B1 VH with N29S, T34S, A52T, G53D, D55S, S60T, Q101P
VL: B1 VL with T20S, N22S, G31S, L47F, E56A, S64K, L79V, A85G, D93Y, I94S
B3: Ab21 (antibody, human IgG1, kappa, N297A, V domains shown)
VH: B1 VH with N29S, I47V, D55S, S60T, T71A, Q101P
VL: AAVLTQTPSPVSAAVGGTVSISCKSSESVYGDYLAWFQQKPGQPPKQLIYDASTLASGVPSRFKGSGSGTQFTLTISGVQCDDAATYYCAGGYVSAGVAFGGGTEVVVKR
B4: Ab21.H (antibody, V domains shown)
VH: EVQLVESGGGLVQPGGSLRLSCAASGIDLSSYYMTWVRQAPGKGLEWIGFIDAGGSAYYATWAKGRFTISRDNSKNTVYLQMNSLRAEDTAVYFCARDLDLWGQGTLVTVSS
VL: DAQLTQSPSTLSASVGDRVTITCKSSESVYGDYLAWFQQKPGKAPKQLIYDASTLASGVPSRFSGSGSGTEFTLTISSLQPDDFATYYCAGGYVSAGVAFGGGTKVEIKR

Key:
human PACAP27 [1] = target: T1, human PACAP27; assay: cell-based or functional assay
human PACAP38 [2] = target: T2, human PACAP38; assay: cell-based or functional assay
PAC1-R on PC-12 cells = target: T3, PAC1-R on PC-12 cells; assay: DELFIA TRF cell-surface binding assay: antibody pre-incubated with PACAP38 (200 nM stock mixed 1:1), added to PAC1-R-expressing PC-12 cells, Eu anti-human IgG detection
Protocol: Cells were initially seeded at 1×10⁵ cells/well in a solution of complete RPMI (“cRPMI”: RPMI medium supplemented with 10% sterile heat-inactivated FBS and 1% sterile antibiotic/antimycotic)+10% FBS, and the plates were allowed to incubate overnight at 37° C. On the day of the binding assay, antibodies at an initial concentration of 15 μg/ml were diluted at a 1:3 ratio in DELFIA® binding buffer (50 mM Tris, 150 mM NaCl, 0.1% azide, 2% horse serum) (Perkin-Elmer, Waltham, Mass.) to a total volume of 60 μL in a separate 96 well round bottom plate. PACAP38 was prepared for the binding assay by diluting it in DELFIA® binding buffer to a concentration of 200 nM, and then 60 μl of the diluted PACAP38 was added to each of the antibody-containing wells to form antibody:antigen complexes. Following addition of PACAP38, the antibody:antigen complexes were incubated at room temperature on a shaker for 1 hour. […]
DELFIA® Europium labeled anti-human IgG detection reagent (Cat #1244-330, Perkin-Elmer, Waltham, Mass.) was diluted to a concentration of 300 ng/ml in DELFIA® Binding Buffer. […] The plates were then read (TRF, excitation 330 nm, emission 620 nm) on a SPECTRAMAX® (Molecular Devices, Sunnyvale, Calif.) plate reader.

human PACAP38 [3] = target: T2, human PACAP38; assay: cell-based or functional assay
human PACAP38 [4] = target: T2, human PACAP38; assay: cell-based or functional assay
human PACAP27 [5] = target: T1, human PACAP27; assay: SPR (ProteOn XPR36), antibody amine-coupled to chip, PACAP27 as analyte 1.23-1000 nM
human PACAP38 [6] = target: T2, human PACAP38; assay: SPR (ProteOn XPR36), antibody amine-coupled to chip, PACAP38 as analyte 1.23-100 nM, 1:1 Langmuir fit
Protocol: Binding affinities of monoclonal antibodies for human PACAP were estimated using SPR on the PROTEON™ XPR36 (Bio-Rad, Hercules, Calif.). Antibody was immobilized to the surface of general amine coupling (“GLC” or “GLM”) Chips (Bio-Rad, Hercules, Calif.). A dilution series of human PACAP38 (SEQ ID NO: 1241) prepared in 1×PBST Buffer (4.3 mM Na Phosphate, 1.4 mM K Phosphate, 135 mM NaCl, 2.7 mM KCl 0.05% Polysorbate-20) purchased from Teknova (Cat# P1192, Teknova, Hollister, Calif.) and supplemented with 0.25 M arginine (from J. T. BAKER®), 0.2 mg/ml BSA (Jackson Immuno Research Labs, West Grove, Pa.), and 0.005% sodium azide (VWR International, Radnor, Pa.) with the pH adjusted to 7 was used to query the antibodies. Antigen (ranging from 1.23 nM to 100 nM) was typically run sequentially with association times of 2-4 minutes and dissociation times of 3-120 minutes grouped with the PROTEON™ Manager Software (v3.1.0.6 (Bio-Rad, Hercules, Calif.)) and fitted using a 1:1 Langmuir binding model. Surfaces were regenerated between analyte queries using 0.85% Phosphoric Acid.

Binder	Inhibition of 0.1 nM PACAP27-induced PAC1-R mediated cAMP increase IC50 (PC-12 cells, HTRF) (human PACAP27 [1]) [nM]	Inhibition of 0.1 nM PACAP38-induced PAC1-R mediated cAMP increase IC50 (PC-12 cells, HTRF) (human PACAP38 [2]) [nM]	binding result (PAC1-R on PC-12 cells)	Inhibition of 5 nM PACAP38-induced human VPAC1-R mediated cAMP increase IC50 (CHO-K1 cells, HTRF) (human PACAP38 [3]) [nM]	Inhibition of 1 nM PACAP38-induced human VPAC2-R mediated cAMP increase IC50 (CHO-K1 cells, HTRF) (human PACAP38 [4]) [nM]	Kd (human PACAP27 [5]) [nM]	koff (human PACAP27 [5]) [s⁻¹]	Kd (human PACAP38 [6]) [nM]	koff (human PACAP38 [6]) [s⁻¹]
B1	0.227	0.18	no binding (tested: about 5000 nM (last point as drawn))	0.649	0.189	–	–	–	–
B2	0.188	0.368	–	3.89	14.6	–	–	–	–
B3	0.14	0.239	–	2.85	5.21	–	–	–	–
B4	0.204	0.246	–	2.1	1.51	0.016	1e-05	0.021	1e-05
